In PMC9545174 (2022):

B1: 11-2G (antibody, V domains shown)
VH: QVQLQQAGPGLVKPSQTLSLTCAISGDSVSNNSAIWNWIRQSPSRGLEWLGRTYYRSKWYNDYAVSVSSRITINPDTSKNQFSLQLNSVTPEDTAVYYCARVDILTGYSFDYWGQGTLVTVSS
VL: EIVLTQSPGTLSLSPGERATLSCRASQSVSSSFLAWYQQKPGQAPRFLIYGESYRATGIPDRFSGSGSGTDFTLTISRLEPEDFAVYYCQQYGSSLTFGGGTKVEIK
B2: 18-4A (antibody, V domains shown)
VH: QVQLQQSGPGLVKPSQTLSLTCAISGDSVSNNSAAWNWIRQSPSRGLEWLGRTYYRSKWYNDYAVSVSSRITINPDTSKNQFSLQLNSVTPEDTAVYYCAREGALLWFGEGAFDYWGQGTLVTVSS
VL: EIVLTQSPGTLSLSPGERATLSCRASHIVSSSYLAWYQQKPGQAPRFLIYGASSRATGIPDRFSGSGSGTDFTLTISRLEPEDFAVYYCQQYAGSPFTFGPGTKVDIK

Molecular target: wildtype SARS-CoV-2 RBD Protein (SARS-CoV-2, UniProt P0DTC2 319-541)
Assay: SPR

Binder	koff [s⁻¹]
B1	0.000568
B2	0.000134
